Laboratory results as given in the supplement of paper PMC11316812.
± gives the standard deviation of the averaged measurements.

Key:
hTERT-HMEC = test: percentage of EdU-negative (G0-arrested) nuclei per well, 72 h; higher = more G0 arrest; conditions: reference: sequence is the full UniProt precursor, the tested protein was the secreted form or ectodomain
MCF7 = test: as above; conditions: reference: sequence is the full UniProt precursor, the tested protein was the secreted form or ectodomain
[1] = protein concentration 0.0115 µM
[2] = protein concentration 0.03125 µM
[3] = protein concentration 0.3125 µM
[4] = protein concentration 0.0225 µM
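Also: secreted proteins added to cultured cells, EdU pulse at the end, nuclei found by Hoechst imaging, EdU status from nuclear versus surrounding ring intensity ratio, PBS as neutral control.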

MLLLFLLFEGLCCPGENTAAPQALQSYHLAAEEQLSFRMLQTSSFANHSWAHSEGSGWLGDLQTHGWDTVLGTIRFLKPWSHGNFSKQELKNLQSLFQLYFHSFIQIVQASAGQFQLEYPFEIQILAGCRMNAPQIFLNMAYQGSDFLSFQGISWEPSPGAGIRAQNICKVLNRYLDIKEILQSLLGHTCPRFLAGLMEAGESELKRKVKPEAWLSCGPSPGPGRLQLVCHVSGFYPKPVWVMWMRGEQEQRGTQRGDVLPNADETWYLRATLDVAAGEAAGLSCRVKHSSLGGHDLIIHWGGYSIFLILICLTVIVTLVILVVVDSRLKKQSSNKNILSPHTPSPVFLMGANTQDTKNSRHQFCLAQVSWIKNRVLKKWKTRLNQLW
percentage of EdU-negative (hTERT-HMEC; [1]): 4.889 ± 0.0055% | percentage of EdU-negative (hTERT-HMEC; protein concentration 0.115 µM): 8.22 ± 0.88% | percentage of EdU-negative (MCF7; [1]): 28.7 ± 2.1% | percentage of EdU-negative (MCF7; protein concentration 0.115 µM): 26 ± 1.3%

MLLLFSVILISWVSTVGGEGTLCDFPKIHHGFLYDEEDYNPFSQVPTGEVFYYSCEYNFVSPSKSFWTRITCTEEGWSPTPKCLRMCSFPFVKNGHSESSGLIHLEGDTVQIICNTGYSLQNNEKNISCVERGWSTPPICSFTKGECHVPILEANVDAQPKKESYKVGDVLKFSCRKNLIRVGSDSVQCYQFGWSPNFPTCKGQVRSCGPPPQLSNGEVKEIRKEEYGHNEVVEYDCNPNFIINGPKKIQCVDGEWTTLPTCVEQVKTCGYIPELEYGYVQPSVPPYQHGVSVEVNCRNEYAMIGNNMITCINGIWTELPMCVATHQLKRCKIAGVNIKTLLKLSGKEFNHNSRIRYRCSDIFRYRHSVCINGKWNPEVDCTEKREQFCPPPPQIPNAQNMTTTVNYQDGEKVAVLCKENYLLPEAKEIVCKDGRWQSLPRCVESTAYCGPPPSINNGDTTSFPLSVYPPGSTVTYRCQSFYKLQGSVTVTCRNKQWSEPPRCLDPCVVSEENMNKNNIQLKWRNDGKLYAKTGDAVEFQCKFPHKAMISSPPFRAICQEGKFEYPICE [Q9BXR6]
percentage of EdU-negative (hTERT-HMEC; protein concentration 0.024 µM): 4.32 ± 0.27% | percentage of EdU-negative (hTERT-HMEC; protein concentration 0.24 µM): 5.71 ± 1.3% | percentage of EdU-negative (MCF7; protein concentration 0.024 µM): 25.7 ± 0.37% | percentage of EdU-negative (MCF7; protein concentration 0.24 µM): 30.6 ± 1.7%

MLLLGAVLLLLALPGHDQETTTQGPGVLLPLPKGACTGWMAGIPGHPGHNGAPGRDGRDGTPGEKGEKGDPGLIGPKGDIGETGVPGAEGPRGFPGIQGRKGEPGEGAYVYRSAFSVGLETYVTIPNMPIRFTKIFYNQQNHYDGSTGKFHCNIPGLYYFAYHITVYMKDVKVSLFKKDKAMLFTYDQYQENNVDQASGSVLLHLEVGDQVWLQVYGEGERNGLYADNDNDSTFTGFLLYHDTN
percentage of EdU-negative (hTERT-HMEC; [2]): 5.07 ± 0.4% | percentage of EdU-negative (hTERT-HMEC; [3]): 5.02 ± 0.22% | percentage of EdU-negative (MCF7; [2]): 26.2 ± 2.3% | percentage of EdU-negative (MCF7; [3]): 25.6 ± 1.1%

MLLLINVILTLWVSCANGQEVKPCDFPEIQHGGLYYKSLRRLYFPAAAGQSYSYYCDQNFVTPSGSYWDYIHCTQDGWSPTVPCLRTCSKSDVEIENGFISESSSIYILNEETQYNCKPGYATAEGNSSGSITCLQNGWSTQPICIKFCDMPVFENSRAKSNGMWFKLHDTLDYECYDGYESSYGNTTDSIVCGEDGWSHLPTCYNSSENCGPPPPISNGDTTSFPQKVYLPWSRVEYQCQSYYELQGSKYVTCSNGDWSEPPRCISMKPCEFPEIQHGHLYYENTRRPYFPVATGQSYSYYCDQNFVTPSGSYWDYIHCTQDGWLPTVPCLRTCSKSDIEIENGFISESSSIYILNKEIQYKCKPGYATADGNSSGSITCLQNGWSAQPICIKFCDMPVFENSRAKSNGMRFKLHDTLDYECYDGYEISYGNTTGSIVCGEDGWSHFPTCYNSSEKCGPPPPISNGDTTSFLLKVYVPQSRVEYQCQSYYELQGSNYVTCSNGEWSEPPRCIHPCIITEENMNKNNIQLKGKSDIKYYAKTGDTIEFMCKLGYNANTSVLSFQAVCREGIVEYPRCE
percentage of EdU-negative (hTERT-HMEC; [4]): 4.84 ± 0.38% | percentage of EdU-negative (hTERT-HMEC; protein concentration 0.225 µM): 4.68 ± 0.36% | percentage of EdU-negative (MCF7; [4]): 24.7 ± 2.6% | percentage of EdU-negative (MCF7; protein concentration 0.225 µM): 28.7 ± 0.4%

MLLLINVILTLWVSCANGQVKPCDFPDIKHGGLFHENMRRPYFPVAVGKYYSYYCDEHFETPSGSYWDYIHCTQNGWSPAVPCLRKCYFPYLENGYNQNYGRKFVQGNSTEVACHPGYGLPKAQTTVTCTEKGWSPTPRCIRVRTCSKSDIEIENGFISESSSIYILNKEIQYKCKPGYATADGNSSGSITCLQNGWSAQPICINSSEKCGPPPPISNGDTTSFLLKVYVPQSRVEYQCQPYYELQGSNYVTCSNGEWSEPPRCIHPCIITEENMNKNNIKLKGRSDRKYYAKTGDTIEFMCKLGYNANTSILSFQAVCREGIVEYPRCE
percentage of EdU-negative (hTERT-HMEC; [4]): 5.2 ± 0.45% | percentage of EdU-negative (hTERT-HMEC; protein concentration 0.225 µM): 5.74 ± 0.65% | percentage of EdU-negative (MCF7; [4]): 28 ± 0.75% | percentage of EdU-negative (MCF7; protein concentration 0.225 µM): 29.4 ± 0.63%

MLLLLLPLLWGRERAEGQTSKLLTMQSSVTVQEGLCVHVPCSFSYPSHGWIYPGPVVHGYWFREGANTDQDAPVATNNPARAVWEETRDRFHLLGDPHTKNCTLSIRDARRSDAGRYFFRMEKGSIKWNYKHHRLSVNVTALTHRPNILIPGTLESGCPQNLTCSVPWACEQGTPPMISWIGTSVSPLDPSTTRSSVLTLIPQPQDHGTSLTCQVTFPGASVTTNKTVHLNVSYPPQNLTMTVFQGDGTVSTVLGNGSSLSLPEGQSLRLVCAVDAVDSNPPARLSLSWRGLTLCPSQPSNPGVLELPWVHLRDAAEFTCRAQNPLGSQQVYLNVSLQSKATSGVTQGVVGGAGATALVFLSFCVIFVVVRSCRKKSARPAAGVGDTGIEDANAVRGSASQGPLTEPWAEDSPPDQPPPASARSSVGEGELQYASLSFQMVKPWDSRGQEATDTEYSEIKIHR [Q9Y336]
percentage of EdU-negative (hTERT-HMEC; [4]): 5.01 ± 0.61% | percentage of EdU-negative (hTERT-HMEC; protein concentration 0.225 µM): 4.21 ± 0.26% | percentage of EdU-negative (MCF7; [4]): 26.3 ± 0.23% | percentage of EdU-negative (MCF7; protein concentration 0.225 µM): 30.4 ± 0.4%

MLLLLTLALLGGPTWAGKMYGPGGGKYFSTTEDYDHEITGLRVSVGLLLVKSVQVKLGDSWDVKLGALGGNTQEVTLQPGEYITKVFVAFQAFLRGMVMYTSKDRYFYFGKLDGQISSAYPSQEGQVLVGIYGQYQLLGIKSIGFEWNYPLEEPTTEPPVNLTYSANSPVGR [Q96DA0]
percentage of EdU-negative (hTERT-HMEC; [4]): 5.62 ± 0.12% | percentage of EdU-negative (hTERT-HMEC; protein concentration 0.225 µM): 9.31 ± 0.28% | percentage of EdU-negative (MCF7; [4]): 25.49 ± 0.17% | percentage of EdU-negative (MCF7; protein concentration 0.225 µM): 24.3 ± 2.2%
